Source: US20200095336A1

B1: human-derived molecularly modified insecticidal protein CCL-CCL_scFv (scFv)
scFv: MATDIQMTQSPSSLSASVGDRVTITCRASQSISSYLNWYQQKPGKAPKLLIYAASRLQSGVPSRFSGSGSGTDFTLTISSLQPEDFATYYCQQTSHPPLTFGQGTKVEIKRSSGGGGSGGGGSGGGGSTDIQMTQSPSSLSASVGDRVTITCRASQSISSYLNWYQQKPGKAPKLLIYAASRLQSGVPSRFSGSGSGTDFTLTISSLQPEDFATYYCQQTSHPPLTFGQGTKVEIKR

Columns and labels:
[1] = target: midgut brush-border membrane vesicle protein BBMV of Plutella xylostella; test: competitive ELISA on coated BBMV; Cry1Ab varied against CCL-CCL_scFv (competitor, detected by its His tag)
[2] = target: midgut brush-border membrane vesicle protein BBMV of Plutella xylostella; test: BLI (Octet), BBMV coated on APS biosensor, analyte at 4, 2, 1 and 0.5 µM
[3] = target: midgut brush-border membrane vesicle protein BBMV of Plutella xylostella; test: competitive ELISA on coated BBMV; Cry1Ac varied against CCL-CCL_scFv (competitor, detected by its His tag)
[4] = target: midgut brush-border membrane vesicle protein BBMV of Plutella xylostella; test: ELISA on coated BBMV, anti-His-tag HRP

Molecule	IC50 [1] [µg/mL]	Kd [2] [nM]	IC50 [3] [µg/mL]	inhibition rate [3] [%]	OD450 [4] [OD450]
Bt toxin Cry1Ab (ligand)	3.02	127			
Bt toxin Cry1Ac (ligand)			1.7	90	
B1		41.6			> 3
